In patent EP1255844B1 (MILLENNIUM PHARMACEUTICALS, INC., dated 2007):
Where “and” joins values, the source holds several entries; their conditions need not be identical. Identical values can stand only once.

Assays:
[1] = biological target: T1, human CC-chemokine receptor 2 (CCR2) as naturally expressed on THP-1 cells, THP-1 cell membranes, fresh human … (human, UniProt P41597 1-374); test: competition with 0.1 nM [125I]MCP-1 on THP-1 cell membranes, filtration and scintillation counting
T1 construct: whole, on cells; In one assay membranes of THP-1 cells were used instead of whole cells; also called CKR-2; MCP-1RA
T1 sequence (P41597 whole entry): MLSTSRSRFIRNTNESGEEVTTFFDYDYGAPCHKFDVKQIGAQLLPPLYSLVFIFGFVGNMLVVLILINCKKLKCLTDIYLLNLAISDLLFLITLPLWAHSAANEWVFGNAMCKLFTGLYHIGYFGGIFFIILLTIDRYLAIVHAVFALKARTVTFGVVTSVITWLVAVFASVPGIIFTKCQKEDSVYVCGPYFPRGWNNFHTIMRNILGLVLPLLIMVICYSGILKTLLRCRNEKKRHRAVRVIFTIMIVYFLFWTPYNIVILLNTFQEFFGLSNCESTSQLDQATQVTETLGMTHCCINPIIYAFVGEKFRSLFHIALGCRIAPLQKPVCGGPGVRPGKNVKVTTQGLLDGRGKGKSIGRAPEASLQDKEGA

[2] = biological target: T1, human CC-chemokine receptor 2 (CCR2) as …; test: competition with 0.1 nM [125I]MCP-1 on fresh human PBMC, filtration and scintillation counting

B1: murine monoclonal antibody LS132.1D9 (1D9) (antibody, V domains shown)
VH: EVQLVESGGGLVQPKGSLKLSCAASGFSFNAYAMNWVRQAPGKGLEWVARIRTKNNNYATYYADSVKDRYTISRDDSESMLFLQMNNLKTEDTAMYYCVTFYGNGVWGTGTTVTVSS
VL: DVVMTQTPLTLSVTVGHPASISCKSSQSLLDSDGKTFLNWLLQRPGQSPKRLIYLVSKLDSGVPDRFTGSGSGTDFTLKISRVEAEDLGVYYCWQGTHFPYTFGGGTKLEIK
notes: Whole mouse monoclonal antibody from a hybridoma (supernatant or antibody); Kappa light chain; The controls are called isotype-matched and murine IgG2a, which implies IgG2a; also called mAb 1D9; mus-1D9
IC50 [1]: ~0.004 µg/mL and ~0.02 nM
IC50 [2]: 0.04 µg/mL and ~0.2 nM
